How the values were obtained:
Assay in all cases: cell-based or functional assay
[1] = molecular target: FVIIa variant CB605 G237W (human) (UniProt P08709)
[2] = molecular target: FVIIa variant CB602 D196W (human) (UniProt P08709)
[3] = molecular target: FVIIa variant CB612 D196F/K197L (human) (UniProt P08709)
[4] = molecular target: FVIIa variant CB601 D196Y (human) (UniProt P08709)
[5] = molecular target: FVIIa variant CB596 K197V (human) (UniProt P08709)
[6] = molecular target: FVIIa variant CB696 G237V/M298Q/K341Q (human) (UniProt P08709)
[7] = molecular target: FVIIa variant CB567 R290E (human) (UniProt P08709)
[8] = molecular target: FVIIa variant CB586 D196R/K197E/K199E (human) (UniProt P08709)
[9] = molecular target: FVIIa variant CB563 K199E (human) (UniProt P08709)
[10] = molecular target: FVIIa variant CB699 R290K (human) (UniProt P08709)
[11] = molecular target: FVIIa variant CB559 K197A (human) (UniProt P08709)
[12] = molecular target: FVIIa variant CB566 R290D (human) (UniProt P08709)
[13] = molecular target: FVIIa variant CB701 R290V (human) (UniProt P08709)
[14] = molecular target: FVIIa variant CB595 K197I (human) (UniProt P08709)
[15] = molecular target: FVIIa variant CB554 D196K (human) (UniProt P08709)
[16] = molecular target: FVIIa variant CB560 K197L (human) (UniProt P08709)
[17] = molecular target: FVIIa variant CB606 G237T (human) (UniProt P08709)
[18] = molecular target: FVIIa variant CB555 D196R (human) (UniProt P08709)
[19] = molecular target: FVIIa variant CB670 G237V/K341Q (human) (UniProt P08709)
[20] = molecular target: FVIIa variant CB565 T239A (human) (UniProt P08709)
[21] = molecular target: FVIIa variant CB689 K197E/G237V (human) (UniProt P08709)
[22] = molecular target: FVIIa variant CB735 K341D (human) (UniProt P08709)
[23] = molecular target: FVIIa variant CB598 K197W (human) (UniProt P08709)
[24] = molecular target: FVIIa variant CB587 D196K/K197E/K199E (human) (UniProt P08709)
[25] = molecular target: FVIIa variant CB688 K197E/K199E (human) (UniProt P08709)
[26] = molecular target: FVIIa variant CB594 V158D/E296V/M298Q/K337A (human) (UniProt P08709)
[27] = molecular target: FVIIa variant CB568 R290A (human) (UniProt P08709)
[28] = molecular target: FVIIa variant CB589 D196R/K197M/K199E (human) (UniProt P08709)
[29] = molecular target: FVIIa variant CB700 R290M (human) (UniProt P08709)
[30] = molecular target: FVIIa variant CB600 D196F (human) (UniProt P08709)

“Human Recombinant TFPI (R&D Systems) (from UniProt P10646 29-282)” was tested, and the TFPI fold resistance (fold vs wild-type FVIIa) [1] was less than 0.3, the TFPI fold resistance (fold vs wild-type FVIIa) [2] was less than 0.3 and the TFPI fold resistance (fold vs wild-type FVIIa) [3] was less than 0.3. For the same substance, the TFPI fold resistance (fold vs wild-type FVIIa) [4] was less than 0.3, the TFPI fold resistance (fold vs wild-type FVIIa) [5] was 0.6 and the TFPI fold resistance (fold vs wild-type FVIIa) [6] was 3.2. For the same substance, the IC50 of TFPI inhibition of FVIIa/TF [7] was 440 nM, the TFPI fold resistance (fold vs wild-type FVIIa) [7] was 6.1 and the pIC50 of TFPI inhibition of FVIIa/TF [7] was 6.4. The IC50 of TFPI inhibition of FVIIa/TF [8] was 13 nM, the TFPI fold resistance (fold vs wild-type FVIIa) [8] was less than 0.3 and the pIC50 of TFPI inhibition of FVIIa/TF [8] was 7.9. It also gave an IC50 of TFPI inhibition of FVIIa/TF [9] of 33 nM, a TFPI fold resistance (fold vs wild-type FVIIa) [9] of 1.3 and a pIC50 of TFPI inhibition of FVIIa/TF [9] of 7.5. For the same substance, the TFPI fold resistance (fold vs wild-type FVIIa) [10] was 0.6, the IC50 of TFPI inhibition of FVIIa/TF [11] was 53 nM and the TFPI fold resistance (fold vs wild-type FVIIa) [11] was 0.7. For the same substance, the pIC50 of TFPI inhibition of FVIIa/TF [11] was 7.3, the IC50 of TFPI inhibition of FVIIa/TF [12] was 240 nM and the TFPI fold resistance (fold vs wild-type FVIIa) [12] was 3.3. The pIC50 of TFPI inhibition of FVIIa/TF [12] was 6.6, the TFPI fold resistance (fold vs wild-type FVIIa) [13] was 2.5 and the TFPI fold resistance (fold vs wild-type FVIIa) [14] was 0.8. The IC50 of TFPI inhibition of FVIIa/TF [15] was 45 nM, the TFPI fold resistance (fold vs wild-type FVIIa) [15] was 0.6 and the pIC50 of TFPI inhibition of FVIIa/TF [15] was 7.4. It also gave an IC50 of TFPI inhibition of FVIIa/TF [16] of 1100 nM, a TFPI fold resistance (fold vs wild-type FVIIa) [16] of 16 and a pIC50 of TFPI inhibition of FVIIa/TF [16] of 5.9. It also gave a TFPI fold resistance (fold vs wild-type FVIIa) [17] of 0.3, an IC50 of TFPI inhibition of FVIIa/TF [18] of 37 nM and a TFPI fold resistance (fold vs wild-type FVIIa) [18] of 0.5. The pIC50 of TFPI inhibition of FVIIa/TF [18] was 7.4, the TFPI fold resistance (fold vs wild-type FVIIa) [19] was 14.1 and the IC50 of TFPI inhibition of FVIIa/TF [20] was 320 nM. For the same substance, the TFPI fold resistance (fold vs wild-type FVIIa) [20] was 4.5, the pIC50 of TFPI inhibition of FVIIa/TF [20] was 6.5 and the TFPI fold resistance (fold vs wild-type FVIIa) [21] was 1.7. It also gave a TFPI fold resistance (fold vs wild-type FVIIa) [22] of 148, a TFPI fold resistance (fold vs wild-type FVIIa) [23] of less than 0.3 and an IC50 of TFPI inhibition of FVIIa/TF [24] of 20 nM. For the same substance, the TFPI fold resistance (fold vs wild-type FVIIa) [24] was 0.3, the pIC50 of TFPI inhibition of FVIIa/TF [24] was 7.7 and the TFPI fold resistance (fold vs wild-type FVIIa) [25] was 2.1. It also gave an IC50 of TFPI inhibition of FVIIa/TF [26] of 22 nM, a TFPI fold resistance (fold vs wild-type FVIIa) [26] of 0.3 and a pIC50 of TFPI inhibition of FVIIa/TF [26] of 7.7. For the same substance, the IC50 of TFPI inhibition of FVIIa/TF [27] was 200 nM, the TFPI fold resistance (fold vs wild-type FVIIa) [27] was 2.8 and the pIC50 of TFPI inhibition of FVIIa/TF [27] was 6.7. The IC50 of TFPI inhibition of FVIIa/TF [28] was 44 nM, the TFPI fold resistance (fold vs wild-type FVIIa) [28] was 0.6 and the pIC50 of TFPI inhibition of FVIIa/TF [28] was 7.4. It also gave a TFPI fold resistance (fold vs wild-type FVIIa) [29] of 1 and a TFPI fold resistance (fold vs wild-type FVIIa) [30] of less than 0.3.

Source: patent US20090098103A1
